Assay [1] concerns the target T1, Human receptor grade IGFBP-3 (insulin-like growth factor binding protein 3) (human, UniProt P17936 28-291).
T1 construct: Bought recombinant protein, overlaid in solution on the VN-peptide array
As to the kind of experiment: rests on the VN-peptide array.

Assay [2] has as its target T2, Human receptor grade IGF-II (insulin-like growth factor II) (human, UniProt P01344 25-91).
T2 construct: Bought recombinant protein, overlaid in solution on the VN-peptide array
As to the kind of experiment: rests on the VN-peptide array.

For assay [3], the target named is T3, Human receptor grade IGFBP-5 (insulin-like growth factor binding protein 5) (human, UniProt P24593 21-272).
T3 construct: Bought recombinant protein, overlaid in solution on the VN-peptide array
T3 sequence (P24593 21-272 limits assumed): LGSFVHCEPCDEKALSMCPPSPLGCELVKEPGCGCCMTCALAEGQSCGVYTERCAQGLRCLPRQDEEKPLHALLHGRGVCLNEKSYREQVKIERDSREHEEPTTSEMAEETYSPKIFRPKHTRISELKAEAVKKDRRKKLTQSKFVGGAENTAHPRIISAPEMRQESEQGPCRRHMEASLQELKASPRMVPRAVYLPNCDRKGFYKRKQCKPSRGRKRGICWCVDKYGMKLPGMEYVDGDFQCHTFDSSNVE
As to the kind of experiment: VN-peptide array, ligand overlay, immunoblot/ECL. On the technique in general: Immunoblotting shows a protein as a band on a membrane.

Assay [4] addresses T1, Human receptor grade IGFBP-3 …. The assay can be described thus: VN-peptide array, ligand overlay, immunoblot/ECL.
The target in assay [5] is T2, Human receptor grade IGF-II …. As to the kind of experiment: VN-peptide array, ligand overlay, immunoblot/ECL.
Assay [6] has the same target. As to the kind of experiment: VN-peptide array, ligand overlay, immunoblot/ECL, TotalLab spot intensity. Here is the method: Methanol or ethanol was used to enhance the rehydration of peptide spots that might be hydrophobic. The peptides spotted onto the membranes were activated by incubating in 3 mL of 70% ethanol for five mins. The membranes were subsequently washed three times, 10 minutes each, in 10 mL TBS (Tris Buffered Saline; 8 g NaCl, 0.2 g KCl and 6.1 g Tris Base into 1000 mL of milliQ water, pH 7) with gentle rocking. Membrane blocking was performed by incubating in 10 mL casein-based membrane blocking buffer (MBS; Sigma-Aldrich) overnight at 4° C. The following day, the membranes were washed twice, 10 minutes each, in 10 mL TBS-T (TBS+0.05% Tween-20; pH 7).
Ligands used to test binding to VN-peptides were IGFBP-3, IGFBP-5 and IGF-II. For ligand binding, four separate solutions of 1 μg/mL ligand in 10 mL MBS buffer were prepared and each membrane was incubated in one of the four ligand solutions overnight at 4° C., with gentle rocking. […] The following day, the membranes were washed three times, 10 minutes each, in 10 mL TBS-T.
The binding of the ligands to peptides within the membrane was detected using immunoblotting. The membranes were incubated overnight at 4° C. with 10 mL primary antibody solution (in MBS buffer) targeting the respective ligands. The antibodies used were anti-IGFBP-3 (1:10,000), anti-IGFBP-5 (1:10,000) and anti-IGF-II (1:5000) to detect IGFBP-3, IGFBP-5 and IGF-II respectively. The following day, the membranes were washed three times, 10 minutes each, in 10 mL TBS-T and incubated with 10 mL HRP-conjugated secondary IgG antibody diluted 1:15,000 in MBS buffer for 1 hour at room temperature. Following a further three washes of 10 minutes each, the peptide spots were visualized using ECL. The membranes were exposed onto x-ray films and developed using a film processor (AGFA CP 1000), or were imaged directly using the ChemiDoc™ XRS system (BioRad).

Where no end group is shown, it is not given here.

The source of these data is US20150299263A1 (FACTOR THERAPEUTICS, published 2015).

T2 sequence (P01344 25-91 limits assumed): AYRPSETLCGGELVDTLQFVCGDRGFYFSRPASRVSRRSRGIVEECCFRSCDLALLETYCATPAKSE
T1 sequence (P17936 28-291 limits assumed): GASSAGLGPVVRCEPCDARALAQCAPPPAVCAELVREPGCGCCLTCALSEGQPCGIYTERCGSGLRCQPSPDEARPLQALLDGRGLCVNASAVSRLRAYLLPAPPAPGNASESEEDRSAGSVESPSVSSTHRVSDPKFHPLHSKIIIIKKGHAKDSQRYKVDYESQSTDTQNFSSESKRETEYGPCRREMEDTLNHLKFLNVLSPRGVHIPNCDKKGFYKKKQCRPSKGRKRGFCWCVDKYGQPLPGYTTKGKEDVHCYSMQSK

B1: VN peptide P8 (RVNLRTRRVDTVDPPYPRS) (peptide)
peptide: RVNLRTRRVDTVDPPYPRS
notes: Free synthetic peptide (Mimotopes) in the migration and growth assays; The array carried only its overlapping 16-mers 8A-8D; also called Peptide 8; motif-8 mimic
As to B1, the binding result in assay [1] and in assay [2] was “binds” each time.

B2: Non-binding negative control VN-peptide (KTYLFKGSQYWRFEDG) (peptide)
peptide: KTYLFKGSQYWRFEDG
modifications: also: capped by acetylation and immobilised on array, free peptide in migration assays
notes: On the array it was immobilised and capped by acetylation; in the migration assays it was a free peptide; also called Pneg; negative peptide
Consider B2, for which the binding result in assay [3], in assay [4] and in assay [5] was “no binding (tested: 1 µg/mL ligand)” in each case.

B3: VN-peptide 1B (array grid A14) (peptide)
peptide: DELCSYYQSCCTDYTA
modifications: not fully specified (N-terminus); cysteine pairing not given here; also: free end capped by acetylation, immobilised on cellulose membrane (SPOT synthesis)
As for B3, the “Intensity (against -ve control)” value in assay [6] is 12 fold over negative controls. Besides, the binding result in assay [3] and in assay [4] was “binds” in each case.
